Experimental findings from US20220259593A1, “CONTROL OF MAMMALIAN GENE DOSAGE USING CRISPR” (The Regents of the University of California, priority 2019, published 2022) are described below.

The data set has as its system K562 CRISPRi cells. The data set can be described thus: Constant region variant library pooled growth screen, K562. The format is cell-based, human. Particulars: sgRNA constant region variants; activity relative to the original, un-modified constant region cr995. The essentials:
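Library of sgRNA constant-region variants, each paired with 36 targeting sequences (essential-gene and non-targeting), transduced in duplicate into K562 CRISPRi cells, puromycin-selected and grown 4–8 days at >2000× coverage. Activity per variant is its growth phenotype normalised to the same targeting sequence with unmodified constant region.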

B1: cr917 (nucleic acid)
guide: GTTTAAGAGCTAAGCTGGAAACAGCATAGCAAGTTTAAATAAGGTTAATCCGTTATCAACTTGAAAAAGTGGCATCTAGTAGATGCT
modifications: listed as DNA, chemistry not fully specified
The molecule B1 registered a Mean relative activity of 0.6521.

B2: cr539 (nucleic acid)
guide: GTTTAAGAGCTAAGCTGGAAACAGCATAGCAAGTTTAAATAAGTCTAGTACGTTATCAATTGGAAACAATGGCACCGAGTCGGTGCT
modifications: listed as DNA, chemistry not fully specified
For B2, the Mean relative activity is 0.7135.

B3: cr667 (nucleic acid)
guide: GTTTAAGAGCTAAGCTGGAAACAGCATAGCAAGCTTAAATAAGGCTAGTCCGTTATCAACTCGAAAGAGTGGCACCGAGTCGGTGCT
modifications: listed as DNA, chemistry not fully specified
For the molecule B3, the Mean relative activity is listed as 0.6533.

B4: cr815 (nucleic acid)
guide: GTTTAAGAGCTAAGCTGGAAACAGCATAGCAAGTTTAAATAAGGCTAGTCCGTTATCAACTTGAAAAAGTGGCACCGAGTCGATGCT
modifications: listed as DNA, chemistry not fully specified
Molecule B4 displayed a Mean relative activity of 0.6583.

B5: cr622 (nucleic acid)
guide: GTTTAAGAGCTAAGCTGGAAACAGCATAGCAAGTTTAAATAAGGCTAGTCCGTTATCAGCTGGAAACAGCGGCACCGAGTCGGTGCT
modifications: listed as DNA, chemistry not fully specified
B5 registered a Mean relative activity of 1.099.

B6: cr840 (nucleic acid)
guide: GTTTAAGAGCTAAGCTGGAAACAGCATAGCAAGTTTAAATAAGGCTAGTCCGTTATCAACTTGAGAAAGTAGCACCGAGTCGGTGCT
modifications: listed as DNA, chemistry not fully specified
Turning to B6, the Mean relative activity was found to be 0.6688.

B7: cr522 (nucleic acid)
guide: GTTTAAGAGCTAAGCTGGAAACAGCATTGCAAGTTTAAATAAGGCTAGTCCGTTGTCAACTTGAAAAAGTGGCACCGAGCCGGTGCT
modifications: listed as DNA, chemistry not fully specified
Molecule B7 showed a Mean relative activity of 0.7084.

B8: cr962 (nucleic acid)
guide: GTTTAAGAGCTAAGCTGGAAACAGCATAGCAAGTTTAAATAAGGCTAGTCCGTTATCAACTTGAAAAAGTGGGACCCAGTGGGTCCT
modifications: listed as DNA, chemistry not fully specified
In turn, B8 had a Mean relative activity of 0.6733.

B9: cr017 (nucleic acid)
guide: GTTTAGGAGCTAAGCTGGAAACAGCATAGCAAGTTTAAATAAGGCTAGTCCGTTATCAACTTGAAAAAGTGGCACCGAGTCGGTGCT
modifications: listed as DNA, chemistry not fully specified
Turning to B9, the Mean relative activity is recorded as 0.639.

B10: cr607 (nucleic acid)
guide: GTTTAAGAGCTAAGCTGGAAACAGCATAGCAAGTTTAAATAAGGCTAGTCCGTTATCAACTTGAAAAAGTGGCACCGAACCGGTGCT
modifications: listed as DNA, chemistry not fully specified
Molecule B10 returned a Mean relative activity of 0.6847.

B11: cr699 (nucleic acid)
guide: GTTTAAGAGCTAAGCTGGAAACAGCATAGCAAGTTTAAATAAGGGTACTCCGTTATCAACGCGAAAGCGTGGCACCGAGTCGGTGCT
modifications: listed as DNA, chemistry not fully specified
B11 had a Mean relative activity of 0.6628.

B12: cr725 (nucleic acid)
guide: GTTTAAGAGCTAAGCTGGAAACAGCATAGCAAATTTAAATAAGGCTAGTCCGTTATCAACTTGAAAAAGTGGCACCGAGTCGGTGCT
modifications: listed as DNA, chemistry not fully specified
With B12, the Mean relative activity amounted to 0.7094.

B13: cr848 (nucleic acid)
guide: GTTTAAGAGCTAAGCTGGAAACAGCATAGCAAGTTTAAATAAGGCTAGTCCGTTATCAACTTGAGAAAGTGGCACCGGGTCGGTGCT
modifications: listed as DNA, chemistry not fully specified
In turn, B13 displayed a Mean relative activity of 0.6714.

B14: cr117 (nucleic acid)
guide: GTTTAAGAGCTAAGCTGGAAACAGCATAGCAAGTTTAAATAAGGCTAGTCCGTTATCAACTTGGAAAAGTGGCACCGGGTCGGTGCT
modifications: listed as DNA, chemistry not fully specified
For B14, the Mean relative activity turned out to be 0.6966.

B15: cr279 (nucleic acid)
guide: GTTTAAGAGCTAAGCTGGAAACAGCATAGCAAGTTTAAATAAGGCTAGTCCGTTATCAACTTGAAAAAGTGGCACCGAGCCGGTGCC
modifications: listed as DNA, chemistry not fully specified
B15 gave a Mean relative activity of 0.6783.

B16: cr552 (nucleic acid)
guide: GTTTAAGAGCTAAGCTGGAAACAGCATAGCAAGTTTAAATAAGGCTAGTCCGATGGCAACTTGAAAAAGTGGCACCGAGTCGGTGCT
modifications: listed as DNA, chemistry not fully specified
As to B16, the Mean relative activity was 0.6864.

B17: cr501 (nucleic acid)
guide: GTTTAAGAGCTAAGCTGGAAACAGCATAGCAAGTTTAAATAAGGCTAGTCCGTTATCAACTTGAGAAAGTGTCACCGAGTCGGTGAT
modifications: listed as DNA, chemistry not fully specified
As for B17, the Mean relative activity is on record as 1.052.

B18: cr292 (nucleic acid)
guide: GTTTAAGAGCTAAGCTGGAAACAGCATAGCAAGTTTAAATAAGGCTAGTCCGTTATCAACTTGAAAAAGTCGCACCGAGTCGGTGCT
modifications: listed as DNA, chemistry not fully specified
B18 registered a Mean relative activity of 0.6902.

B19: cr293 (nucleic acid)
guide: GTTTAAGAGCTAAGCTGGAAACAGCATAGCAAGTTTAAATAAGGCTAGTCCGTTATCAACTTGAAAAAGTGGGACCAAGTTGGTCCT
modifications: listed as DNA, chemistry not fully specified
B19: the Mean relative activity stood at 1.052.

B20: cr734 (nucleic acid)
guide: GTTTAAGAGCTAAGCTGGAAACAGCATCGCAAGTTTAAATAAGGCTAGTCCGTTCTCAACTTGAAAAAGTCGCACCGAGTCGGTGCT
modifications: listed as DNA, chemistry not fully specified
For B20, the Mean relative activity was determined as 0.6906.

B21: cr273 (nucleic acid)
guide: GTTTAAGAGCTAAGCTGGAAACAGCATAGCAAGTTTAAATAAGTCTAGTACGTTATCAACTTGAGAAAGTGGCACCGAGTCGGTGCT
modifications: listed as DNA, chemistry not fully specified
Molecule B21 displayed a Mean relative activity of 0.6725.

B22: cr133 (nucleic acid)
guide: GTTTAAGAGCTAAGCTGGAAACAGCATAGCAAGTTTAAATAAGGCAAGCCCGTTATCAACTTGAAAAAGTGGCACCGAGTCGGTGCT
modifications: listed as DNA, chemistry not fully specified
B22 yielded a Mean relative activity of 0.6664.

B23: cr575 (nucleic acid)
guide: GTTTAAGAGCTAAGCTGGAAACAGCATAGCAAGTTTAAATAAGGCTAGTCCGTTATCAACTTGAAAAAGTGGCACGGAGTCGGTGCT
modifications: listed as DNA, chemistry not fully specified
In turn, B23 had a Mean relative activity of 0.6955.

B24: cr596 (nucleic acid)
guide: GTTTAAGAGCTAAGCTGGAAACAGCATAGCAAGTTTAAATAAGGCTAGTCCGTTATCAACTTGAAAAAGTGGGACCGAGTCGGTGCT
modifications: listed as DNA, chemistry not fully specified
Take B24: the Mean relative activity is on record as 0.69.

B25: cr015 (nucleic acid)
guide: GTTTACGAGCTAAGCTGGAAACAGCATAGCAAGTTTAAATAAGGCTAGTCCGTTATCAACTTGAAAAAGTGGCACCGAGTCGGTGCT
modifications: listed as DNA, chemistry not fully specified
Consider B25, for which the Mean relative activity was 0.7022.

B26: cr658 (nucleic acid)
guide: GTTTAAGAGCTAAGCTGGAAACAGCATAGCAAGTTTAAATAAGGATATTCCGTTATCAATTCGAAAGAATGGCACCGAGTCGGTGCT
modifications: listed as DNA, chemistry not fully specified
B26: the Mean relative activity came out at 0.6883.

B27: cr885 (nucleic acid)
guide: GTTTAAGAGCTAAGCTGGAAACAGCATAGCCAGTTTAAATAAGGCTAGTCCGTTATCAACTTGAAAAAGTTGCACCGAGTCGGTGCT
modifications: listed as DNA, chemistry not fully specified
In turn, B27 returned a Mean relative activity of 0.6498.

B28: cr877 (nucleic acid)
guide: GTTTAAGAGCTAAGCTGGAAACAGCATAGCAAGTTTAAATAAGGCTAGTCCGTTATCAACCTGAAAAGGTGCCACGGAGTCCGTGGT
modifications: listed as DNA, chemistry not fully specified
B28 had a Mean relative activity of 0.686.

B29: cr437 (nucleic acid)
guide: GTTTAAGAGCTAAGCTGGAAACAGCATAGCAAGTTTAAATAAGGCTAGTCCGTTATCAACGTGAAAACGTGGCACACAGTGTGTGCT
modifications: listed as DNA, chemistry not fully specified
B29 displayed a Mean relative activity of 0.6854.
